What all share (test): rNET
Assay [1] has as its target … analog, Residue 3 = K.
Assay [2] addresses … analog, Residue 1 = H.
The target of assay [3] is … analog, Residue 1 = V.
The target of assay [4] is … analog, Residue 1 = R.

murine monoclonal antibody 3D6: the OD came to 0.053 OD in assay [1], 0.054 OD in assay [2], 0.057 OD in assay [3] and 0.056 OD in assay [4].

These data come from patent US20040087777A1.
